# The nanobody polyreactivity screen of Harvey et al. (2022)
# Assay: yeast display, Sf9 membrane polyspecificity reagent, FACS + sequencing; frameworks hold sequencing errors
# How it was run: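 Galactose-induced (36–48 hours) yeast carrying a synthetic nanobody display library were exposed to 10% biotinylated, detergent-solubilized Sf9 membrane reagent at 4 °C for 1 hour. FACS followed streptavidin microbead enrichment, using low and high (top ~1%) gates for expression (anti-HA) and reagent binding (streptavidin). Colony PCR, MiSeq 2 × 250 sequencing and CDR-length filtering followed. Labels for polyreactivity reflect the gate of origin.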
row,Sequence,polyreactivity (PSR sort gate)
1,QFQLVESGGGLVQAGGSLRLSCAASGFTFDDYDMGWYRQAPGKERELVAAISWSGGSTYYADSVKGRFTISRDNSKNTVYLQMNSLKPEDTAVYYCAAERSYGGFDYWGQGTQVSVSS,low polyreactivity
2,QVQLVESGGGLVQAGGSLRLSCAASGLTFLIYAMGWYIQAPRKERELVASITGRGGSTYYADSVKGRFTISRDNAKNTVYLQMNCLKPEDTAVYYCAASLRYYGLEMDYWGQGTQVTVSS,high polyreactivity
3,QVQLVESGGGLVQAGGSLRLSCAASGSTFYVNDMGRYRQAPGNERELVAAITWGVGDTYYADSVKGRFTISRDNAKNTVYLQMNSQKPEDTAVYYCAADTSYYYAYTQMEYWGQGTQVTVSS,low polyreactivity
4,QVQLVESGGGLVQAGGSLRLSCAASGSTFIVNAMGWYRQAPGKERELVAAISRSGSDTYYADSVKGRFTISRDNAKNTVYLQMNSLKPEDTAVYYCAARWSYRSLARYNYWGQGTQVTVSS,low polyreactivity
5,QVQLVESGGGLVQAGGSLRLSCAASGITYRPYAMGWYRQTPGKERELVASISRGGSTYYADSVKGRFTISRDNAKNTVYLQMNSLKPEDTAVYYCAAYFAWRYDYWGQGTQVTVSS,high polyreactivity
6,QVQLVESGGGLVQAGGSLRLSCAASGFTFYKYAMGWYRQAPGKEREFVASITVRTGSTSYADSVKGRFTISRDNAKNTVYLQMNSLKPEDTAVYYCAAETYYYSWYYLGYTYDYWGHGTQVTVSS,high polyreactivity
7,QVQLVESGGGLVQAGGSLRLSCAASGRTIYFNVMGWYRQAPGKERELVAAISGGGSTNYADSVKGRYTISRDNAKNTVYLQMNSLKPEDTAVYYCATGYYSGLIDDYWGQGTQVTVSS,low polyreactivity
8,QVQLVESGGGLVQAGGSLRLSCAASGRIFVYNAMGWYRQAPGKERELVAAISKGGGSTYYADSVKGRFTISRDNAKNTVYLQMNSLKPEDTAVYYCAAVVSGRYWGKKITYDYWGQGTQVSVSS,high polyreactivity
9,QVQLVESGGGLVQAGGSLRLSCAASGIIFYDNAMGWYRQAPGKERELVAAISWGGGDTYYADSVKGRFTISRDNAKNTVYLQMNSLKPEDTAVYYCAAGNLPDYDYWGQGTQVTVSS,low polyreactivity
10,QVQLVESGGGLVQAGGSLRLSCAASGSIFGANTMGWYRQAPGKERELVAAISSGGNTYYADSVKGRFTISRDNAKNTVYLQMNSLKPEDTAVYYCAVGAYWYFGFVSYGYDYCGQGTQVTVSS,low polyreactivity
11,QVQLVESGGGLVQAGGSLRLSCAASGRTFESYAMGWYRQAPGKERELVAAITWSGGDTYYADSVKGRFTISRDNAKNSVYLQMNSLKPEDTAVYYCAKEQGLYSVSPYDYWGQGSQVTVSS,low polyreactivity
12,QVQLVESGGGLVKAGGSLRLTCAASGRIFVNYAMGWYRQAPGKEMELVAAINWSGGRTYYADSVKGRFTISRDNAKNTVYLQMNSLKPEDTAVYYCAAEWEGTYTTVPDEFNYWGQGTQVTVSS,high polyreactivity
13,QVQLVESGGGLVQAGGSLRLSCAASGRTLSWYAMGWYRQAPGKEWEFVAAITSSGASTYYADSVKGRFTISRDNANNTVYLQMNSLKPEDTAVYYCNAAWRRVWFNYCGQGTQVTVSS,high polyreactivity
14,QVQLVESGGALFQAGGSLRLSCAASGRIFTIYASRWYRQAPGKATELVATISRRGGSTYYADSVKGRFTISRDNAKNNVYLQMNSLKPEVSAVYYCAADSVITWWAYDYWGQGTQVTVSS,high polyreactivity
15,QVQLVESGGGLVQAGGSLRLSCAASGFTFYQNAMGWYRQAPGKEREFVAAISRRGGSTYYADSVKGRFTSSRDNAKNTVYLQMNSLKPEDTAVYYCAADYKRKSDGDYWGQGTQVTVSS,high polyreactivity
16,QVQLVESGGGLVQAGGSLRLSCAASGSIFRVYGMGWHRQAPGKERELVAAITWSGGSTYYADSVKGRFTISRDNAKNTVYLQMNSLKPEDTAVSYCAARARPRYYRPPYDYWGQGTQVTVSS,high polyreactivity
17,QVQLVESGGGLVQAGGSLRLSCAASGRIFFRNTMGWYRQAPGKERELVAAISGSGGSTYYADSVKGRFTISRDNAKNTVYLQMNSLKPEDTAVYYCAKRWLYPISYDYWGQGTQVTVSS,high polyreactivity
18,QVQLVESGGGLVQAGGSLRLSCAASGSTVGSNAMGWYRQAPGKERELVAAISSDGSTNYADSVKGRFTISRDNAKNTVSLQMNSLKPEETAVYYCKAVVQDADWGYDYWGQGTQVTLSS,low polyreactivity
19,QDQLVDSGGGLLQAGGSLRLSCAASGRIFVWNTMGWYRQAPGKERELVAAITSGGSTTFADSVKGRFTISRDNAKYTVYLQMNSLKPEDTAVYYCNTELDLYHPGDDYWGQGTQVTVSS,high polyreactivity
20,QVQLVESGGGLVQAGGSLRLSCAASGSIFPDYALGWYRQPPGKERELVAAITWRDDSTYYADSVKGRFTSSRDKAKNTVYLQMNSLKPEETAVYYCNASAMDPLYAKDDYWGQGTQVTVSS,low polyreactivity
21,QVQLVESGGGLVQAGGSLRLSCAASGSIFTVYAMGWYRQAPGKERELVAAINWSDGDTYYADSVKGRFTISRDNAKNTVYLQMNSLKPEDTAVYYCAAEGIYLILWYGYVEYDYWGQGTQVTVSS,low polyreactivity

row,Sequence,polyreactivity (PSR sort gate)
1,QVQLVESGGGLVQAGGSLRLSCAASGRTYGIYAMGWYRQAPGKEREFVAAISWSSGGSTYYADSVKGRFTISRDNAKNTVYFQMISLKPEDTAVYYCNVDTIYNLESDYWGQGTQVTVSS,low polyreactivity
2,QVQLVESGGGLVQAGGSLRVSCADSGGIFALNDMGWYRQAPGKERELVAAINGAGTYYADSVKGRFTISRDNAKNTVYLQRNSLKPEDTAVYYCARGSLHWEYARTWTRVEYDYWGQGTQVTVSS,low polyreactivity
3,QVQLVESGGGLVQAGGSLRLSCAASGRIFGYYAMGWYRQAPGKERELVAAISRSGSSTYYADSVKGRFTISRDNAKNTVYLQMNSLKPEDTAVYYCNSEKYYRAYLLPFNYWGQGTQVTVSS,high polyreactivity
4,QVLLVESGGGLVQAGGSLRLSCAASGRTFVYYTMGWDRQAPGKERELVAAINWRGTSTYYADSVKGRFTISRDNAKNTVYLQMNSLKPEDTAVYYCYAERNAGFDYWGQGTQVTVSS,high polyreactivity
5,QVQHVESGGGLVQAGGSLRLSCAASGSIFVYYAMGGYRQAPGKERELVAAISRSGGNTYYADSVKGRFTISRDNAKNTVYLQMNSLKPEDTAVYYCAAQPYVEGTKRYYWGQGTQVTVSS,high polyreactivity
6,QVQLVESGGGLVQAGGSLRLSCAATGYIIQHYAMGWYRQSAGKERELVAAITSGGSTTYADSVKWRFTISRDNAKNTVFLQMNSLKPEDSAVYYCKALRRDRYTRKGYEYWGQGTQVTVSS,high polyreactivity
7,QVQLVESGVGLVNAGGSLRLSCAASGYIFSPNVMGWYRQAPGKERELVAAITRGGGTYYADSVKGRFTISRDNAKNTVYLHLNSLKPEDTAVYYCNEDYTLSVYGTTYCYNYWGQGTQVTVSS,high polyreactivity
8,QVQLVESGGGLVQAGGSLRLSCAASGFIFSSYAMGWYRQAPGKERELVAAISWSDSSTYYADSVKGRFTISRDNSKNTVYLQMTSLKPEDTAVYYCNVEVAESYDYWGQGTQVTVSS,low polyreactivity
9,QVLLQESGGGLVQAGGSLRLGCAASGTISPAYYMGRYHQAPGKEREFVAAITYGTNTYYADSEKGRFTISRDNAKNTVYLQMNSLKPEDTAVYYCSATAGYNGAHDYWGQVTQVTVSS,low polyreactivity
10,QVQLQESGGGLVQAGGSLRLSCAASGYISLAQTIGWYRQAQGKEREFVASIALGSSTYYTDSVKGSFTISRDNAKTTVYLQMNSLKPEDTAVYYCAARVGASYAHDYWGQGTQVTLSS,low polyreactivity
11,QVQLVESGGGLVQAGGSLRLSCAASGSTFYVNTMGWYRQAPGKERELVAAINWRGGSTYYADSVKGRFTISRDNAKNTVYLQMNSLKPEDTAVYYCAAYGYYRYVTAYIYDMDYWGQGTQVTVSS,low polyreactivity
12,QVQLVESGGGLVQAGGSLRLSCAASGSTFGFYAMGWYRQAPGKERELVAVISSGGGTNYADSVKGRFTISRDNAKNTVYLQMNSLKPEDTAVYYCAASRFALSGGYDYWGQGTQVTVTS,low polyreactivity
13,QVQLVESGAGIVQAGGSLRLSCAASVSTFQSYAMGLYRPAPGKERELFAAISFSGGSTYYADSVKGRFTISRDNAKNTVYLQMNSLKPEDTAVYYCAKRGWVYFHGYDYWGQGTQVTVSS,low polyreactivity
14,QVQLVESGGGLVHAGGSLRLSCAASGRIFERYAMGWYRQAPGKERELVAAISVSGSGTYYADSVKGRFTISRDNAKNTVYLQMNSLKPEDTAVYYCAADASLLGLFQGYDYWGQGTQVTVSS,low polyreactivity
15,QVQLVESGGGLVQAGGSLRLSCAASGRTFRYYAMGWYRQAPGKERELVAAINWNGGRTYYADSVKGRFTISRDNAKNTVYLQMNSLKPEDTAVYYCAAYHYRSPVTGDYWGQGTQVTVSS,high polyreactivity
16,QVQLVESGGGLVQAGGSLRLSCAASGIIFEYYAMGWYIQAPGKERELVAAISSDTSTNYADSVKGRFTISRDNAKNTVYLQMNSLKPEDTAVYYCNADAYYDTYGIGVGTDYDYWGQGTQVTVSS,low polyreactivity
17,QVQLVESGGGLVQAGGSLRLSCAASGRIIYWYAMGWYRQAPGKERELVAAIDWSAASTYYADSVKGRFTISRDNAKNTVYLQMNSLKPEDTAVYYCNRRGRGGESYRTTPGALGYWGQGTQVTVSS,low polyreactivity
18,QVQLVDSGGGLVQAGGSLRLSCPASGSTIAWYDMGWYRQEPGKEREFVAAIDYGGGSTYADSVKGRFTISRDNAKNTVYLQMNSLKPDDTAVYYCNADYWVYLYDYWGQGTLVTVSS,low polyreactivity
19,QVQLVESGGGLVQAGGSLRLSCAASGSTFVNYAMGWYRQAPGKERELVAAISSTGGSTYYADSVKGRFTISRDNAKNTVYLQMNSLKPEDTAVYYCAAYRYFKMGYWGQGTQVTVSS,high polyreactivity
20,QVQLVESGGGLVQAGGSLRLSCPASASIFLSNMGWYRQAPGKERELVAAITIGGSTDYADSVKGRFTISRDNAKNTVYLQMNSLKPEDTAVYYCNADNPYSDGADSLGNYWGQGTQVTVSS,low polyreactivity
